For the series, the system named is K4 kissing-loop RNA reporter. As to the kind of experiment: apparent KD of K4 kissing-loop reporter; higher = weaker reporter binding. The note with it: Eterna round: R107. The procedure:
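RNA-MaP round R107: designed RNA switches with theophylline, tryptophan, arginine or FMN aptamers are transcribed on-chip within common flanks. They are titrated with a labelled K4 kissing-loop RNA reporter in RNA-MaP buffer (100 mM Tris pH 7.5, 80 mM KCl, 4 mM MgCl2), without ligand or with the indicated ligand. Median apparent KD per design.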

Setting [1] is: input ligand: theophylline 20 uM.
[2] abbreviates: input ligand: tryptophan 2.4 mM.
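Also: bound reporter read as fluorescence of individual clusters on recovered sequencing chips by microscopy, with normalized cluster intensities fitted with a binding model.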

For the sequence “CGCAGUGAUGUUGUGAUUAACUACAGGGAAGGAGCGUGCUAGAGCACAGGUAGGUCGCCCAGUGGCCGAGUGAUGUUCGGCGGGU [Same State Arginine A GF 27]”, the “apparent KD of K4 kissing-loop reporter” value runs as follows: (input ligand: FMN 200 uM) 0.237 µM; (input ligand: arginine 13.2 mM) 0.189 µM; (input ligand: none) 0.227 µM; under setting [1], 0.25 µM; under setting [2], 0.188 µM.
Taken in the same sequence, the figures for “CGCCAGGGUGAAGGAUAUCCGUCUGAUUGAGCGCAGUGAUGUUGCGCGAUUCGUUCAUCGCUCGGAGGAGAAGGUCAGAUAACUC [theeternabot_sameState_KL_FMN_B_3]” were 0.127 µM, 0.121 µM, 0.121 µM, 0.121 µM and 0.112 µM.
With “CGCCGUAAGGCGAGCGCUCCCACUCCGGAAGGAGCGCCCGAAAGGGCAGGUAGGUCGCCGGAGUGAUGUUCCGGUGGAGGGCUCG [#2 Exclusion - Arginine A Attempt #28 (Inspired by Omei)]”, the “apparent KD of K4 kissing-loop reporter” value was 0.353 µM (input ligand: FMN 200 uM); 0.261 µM (input ligand: arginine 13.2 mM); 0.38 µM (input ligand: none); 0.267 µM under setting [1]; 0.33 µM under setting [2].
In the case of “CGCGCCCAGCCGGAUACCAGUGACCCGCUGGGAACCGCGGGCCCAGAGUGAUGUUCGGGACACCCUUGGCAGCCGCCUGGGCGAC [#2 Same State - Theophylline B Attempt #8 (HarryS)]”, the “apparent KD of K4 kissing-loop reporter” value is, setting by setting: (input ligand: FMN 200 uM) 0.993 µM; (input ligand: arginine 13.2 mM) 0.378 µM; (input ligand: none) 1.13 µM; under setting [1], 0.525 µM; under setting [2], 0.509 µM.
Taken in the same sequence, the figures for “CGCGUACAGUGUUCUACGGCCGAGAGUGAUACCAGCCGUAUUUGUGGCCCUUGGCAGCGCAGAUGCAGUGAUGUUGCAUACUUGG [Same State Theophylline A GF 21]” were 0.0986 µM, 0.139 µM, 0.135 µM, 0.149 µM and 0.0854 µM.
Consider “CGCUUGCACGGAAGGAGCGUCCAAGCGAGACACGAGUGAUGUUCGUGAUCGACGUAAACUGGACAGGUAGGUCGCCGUGCUUAAU [Eresti]”, for which the “apparent KD of K4 kissing-loop reporter” value is, setting by setting: (input ligand: FMN 200 uM) 0.107 µM; (input ligand: arginine 13.2 mM) 0.091 µM; (input ligand: none) 0.121 µM; under setting [1], 0.101 µM; under setting [2], 0.1 µM.
Taken in the same sequence, the figures for “CGCUUGGGUGCGGCCGCCACUAGAGCGUGACACGGGUCCCAAAAGGGUGCAGUGAUGUUGCAGCCUAGGACCGGGCACCUCUGGC [Beveesbe]” were 0.107 µM, 0.083 µM, 0.0904 µM, 0.0701 µM and 0.167 µM.
Taken in the same sequence, the figures for “CGGAGUCGCGGAAGGAGCGCUCGAUAGACAAGUUGAUCGUGCCGUGGUCGAGUGAUGUUCGAGCAGGUAGGUCGCCGUCGGUCCC [Cexeatedma]” were 0.252 µM, 0.204 µM, 0.242 µM, 0.229 µM and 0.23 µM.
Taken in the same sequence, the figures for “CGGAGUGAUGUUCCUUUUAUUAAUUAUUAACGAGGACCGGUACGGCCGCCACUCGAUUUAGCUUUUAUUUAAUGCUUGGAUGUUU [JR_SSTryptoA_Sub003]” were 0.132 µM, 0.224 µM, 0.157 µM, 0.246 µM and 0.077 µM.
Regarding “CGUACGGUUUCUUUCUUUCCGUACGAGUGCCGAGGACCGGUACGGCCGCCACUCGCUACAGCCUAGUGAUGUUAGGCGAUUCUUU”, the “apparent KD of K4 kissing-loop reporter” value runs as follows: (input ligand: FMN 200 uM) 0.129 µM; (input ligand: arginine 13.2 mM) 0.117 µM; (input ligand: none) 0.125 µM; under setting [1], 0.163 µM; under setting [2], 0.102 µM.
With “CGUUUAUAGCAGGAUACCAGUACCCAUAAAGUACGUUAAUAGUAGAGUGAUGUUCUAAAGUACCCUUGGCAGCUUAGAGUGAGUG [ExTheophylB.Q]”, the “apparent KD of K4 kissing-loop reporter” value (input ligand: FMN 200 uM) came to 0.0935 µM; the “apparent KD of K4 kissing-loop reporter” value (input ligand: arginine 13.2 mM) was 0.159 µM; the “apparent KD of K4 kissing-loop reporter” value (input ligand: none) worked out at 0.117 µM; the “apparent KD of K4 kissing-loop reporter” value under setting [1] came to 0.137 µM; the “apparent KD of K4 kissing-loop reporter” value under setting [2] is 0.0764 µM.
Regarding “CGUUUAUAGCAGGAUACCAGUACCGAUAAAGUACGUUAAUAGUAGAGUGAUGUUCUAAAGUACCCUUGGCAGCUUAGAGUGAGUG [ExTheophylB.P]”, the “apparent KD of K4 kissing-loop reporter” value runs as follows: (input ligand: FMN 200 uM) 0.0953 µM; (input ligand: arginine 13.2 mM) 0.142 µM; (input ligand: none) 0.111 µM; under setting [1], 0.162 µM; under setting [2], 0.0745 µM.
For “CUCCUUGGCUAAGGAUAUCGUAGUGAUGUUAUGGUCUUUGCUAAGACUUCUGAUAUUGAAUUCCGACGAGAAGGUAGAAGGACGG [theeternabot_exclusion_KL_FMN_B_18]” the same measures were 0.817 µM, 0.69 µM, 0.835 µM, 0.745 µM and 0.626 µM.
For the sequence “CUCGAGUGAUGUUCGAUUAUUUAUACAGAUACCAGUGAAUUUUAACACCCUUGGCAGCUGGUAGUAUCGUUGUAAUUUACACAAG [JR_ExcTheophyA_Sub004]”, the “apparent KD of K4 kissing-loop reporter” value turned out to be 0.0998 µM (input ligand: FMN 200 uM); 0.163 µM (input ligand: arginine 13.2 mM); 0.116 µM (input ligand: none); 0.168 µM under setting [1]; 0.0879 µM under setting [2].
Taken in the same sequence, the figures for “CUCGUGGGUUUGAGAGGGCUUGUGGGAAGUGAGGAUAUUUAGGGAGAAAGAAGGCACUAUAAAAUAUAGUGAUGUUAUAUAAGGG [SSFMNA.M]” were 0.494 µM, 0.138 µM, 0.188 µM, 0.751 µM and 0.347 µM.
Taken in the same sequence, the figures for “CUGACGAUGACACGGUGGCCGCUGGUCGUGCGAGGACCGGUACGGCCGCCACUCGCAUGAGUGAUGUUCAUGUGUCGUCGUCGUC [#08 K4 Tryptophan A Exclusion]” were 0.133 µM, 0.101 µM, 0.111 µM, 0.112 µM and 0.118 µM.
On to “CUGACGUGCGGUAGGUUCAAGUGCUGGGAAGGAGCGCAGAUGACUGCAGGUAGGUCGCCCAGUGAUGUUGGGCUUUCCACCUACG [Quinbe]”, for which the “apparent KD of K4 kissing-loop reporter” value (input ligand: FMN 200 uM) was 0.186 µM; the “apparent KD of K4 kissing-loop reporter” value (input ligand: arginine 13.2 mM) worked out at 0.18 µM; the “apparent KD of K4 kissing-loop reporter” value (input ligand: none) was 0.193 µM; the “apparent KD of K4 kissing-loop reporter” value under setting [1] worked out at 0.214 µM; the “apparent KD of K4 kissing-loop reporter” value under setting [2] was found to be 0.186 µM.
Take “CUGACUAAAUAGUCAGUGAUGUUGACUGGACGAGGACCGGUACGGCCGCCACUCGAGAGUGGUGUAAUAUAUGUCAUAUAGUCAA [Tryp A SS t3]”: the “apparent KD of K4 kissing-loop reporter” value runs as follows: (input ligand: FMN 200 uM) 0.517 µM; (input ligand: arginine 13.2 mM) 0.258 µM; (input ligand: none) 0.436 µM; under setting [1], 0.423 µM; under setting [2], 0.233 µM.
For “CUGUCAUGGGAUGGGCCAGUGAUGUUGGGCCGAGGACCGGUACGGCCGCCACUCGUAGCACAGUGCGCGCUAGCAUUGUACGUCA [theeternabot_exclusion_KL_Trp_A_35]” the same measures were 1.26 µM, 0.629 µM, 0.977 µM, 0.808 µM and 0.456 µM.
Taken in the same sequence, the figures for “CUUAGGUCAGUUACCCGAGUGAUGUUCUGUCGAGGACCGGUACGGCCGCCACUCGCUCAUUAUCGGUCUGACAAAGAGCUGGCUU [theeternabot_exclusion_KL_Trp_A_9]” were 0.393 µM, 0.0564 µM, 0.208 µM, 0.136 µM and 0.106 µM.
Taken in the same sequence, the figures for “CUUCGAUUAACAGAUACCAGUCACUUGGGAGCCACACACAAGUGAGUGAUGUUCACUUGUGACCCUUGGCAGCUGUUAGUCGAAG [#04 K4 Theophylline B Exclusion]” were 0.102 µM, 0.0865 µM, 0.0972 µM, 0.127 µM and 0.103 µM.
